Source: patent publication US20210032330A1 (PHANES THERAPEUTICS, published 2021)

B1: 19-A14-A (antibody, V domains shown)
VH: DVQLQGSGPGLVKPSQSLSLTCTVTGYSITSDYAWNWIRQFPGNILEWMGYISYSGSTSYNPSLKSRISITRDTSKNQFFLQLNSVTTEDTATYYCARDGRYDYYAMDYWGQGTSVTVSS
VL: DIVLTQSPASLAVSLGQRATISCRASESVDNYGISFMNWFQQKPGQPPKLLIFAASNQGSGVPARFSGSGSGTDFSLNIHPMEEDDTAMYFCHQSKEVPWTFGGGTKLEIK
notes: also called anti-TIM-3 monoclonal antibody 19-A14-A
B2: 2-K2-A (antibody, V domains shown)
VH: QVQLQQSGAELAKPGASVKMSCKASGYTFTTYWMHWVKQRPGQGLEWIGYINPSTGYTEYNQKFKDKSTLTADKSSSTAYMQLSSLTSEDSAVYYCANDHEGGFAYWGQGTLVTVSA
VL: DILMTQSPSSMSVSLGDTVSITCHASQGISSNIGWLQQKPGKSFKGLIYHGTNLEDGVPSRFSGSGSGADYSLTISSLESEDFADYYCVQYAQFPFTFGSGTKLEIK
notes: also called anti-TIM-3 monoclonal antibody 2-K2-A
B3: 12-G18-A (antibody, V domains shown)
VH: DVQLQESGPGLVKPSQSLSLTCTVTGYSITSDYAWNWIRQFPGNKLEWMGYISYSGSTSYNPSLKSRISITRDTSKNQFFLQLNSVTIGDTATYYCASNYRYDYWFFGVWGAGTTVTVSS
VL: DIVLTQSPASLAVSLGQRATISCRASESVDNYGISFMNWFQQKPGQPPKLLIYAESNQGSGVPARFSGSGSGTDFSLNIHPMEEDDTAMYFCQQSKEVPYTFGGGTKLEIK
notes: also called anti-TIM-3 monoclonal antibody 12-G18-A
B4: 5-C11-A (antibody, V domains shown)
VH: EVQLVESGGGLVKPGGSLKLSCAASGFTFSDFYMYWVRQTPEKRLEWVATISDGGSYTYYPDSVKGRFTISRDNAKNNLYLQMSSLKSEDTAMYYCASGYYYGSDYVMDYWGQGTSVTVSS
VL: DIVMSQSPSSLAVSAGEKVTMSCKSSQSLLNSRTRKNYLAWYQQKPGQSPKLLIYWASTRESGVPDRFTGSGSGTDFTLTISSVQADDLAVYYCKQSYNLLTFGAGTKLELK
notes: also called anti-TIM-3 monoclonal antibody 5-C11-A

What was measured:
[1] = biological target: T1, human T-cell immunoglobulin and mucin-domain containing molecule 3 (TIM-3) (human, UniProt Q8TDQ0 22-200, limits assumed); assay: competition ELISA: pre-equilibrated mixture of mAb and human TIM3(ECD)-huFc on plate-coated phosphatidylserine (PtdSer, a lipid), anti-huFc-HRP detection, % inhibition
T1 construct: also called Human TIM-3
Protocol: ELISA plates were coated with PtdSer or PtdChol, washed and incubated with a pre-equilibrated mixture of purified antibodies at various concentrations and TIM3(ECD)-huFc. The plates were washed and then the signal was detected by incubation with HRP-coupled anti-huFc secondary antibody and then a HRP substrate. TIM-3 binding to PtdSer was used as 100% signal and TIM-3 binding to PtdChol as zero (background) to calculate percent of inhibition by a given mAb.
To determine the effect of anti-TIM-3 antibodies on the interaction of TIM-3 with phosphatidylserine (PtdSer), 384-well ELISA plates were coated with PtdSer or phosphatidylcholine (PtdChol) at room temperature. The wells were washed using PBS supplemented with 0.1% Tween-20 and then blocked using PBS supplemented with 2% bovine serum albumin (BSA). […] The plates were washed and then incubated with HRP-coupled anti-huFc secondary antibody. Plates were washed, incubated with an HRP substrate, and read using a POLARstar Omega Microplate (BMG LABTECH). The assay was performed in triplicate.

[2] = biological target: T1, human T-cell immunoglobulin and …; assay: FACS on HEK293 cells transiently transfected with human TIM-3 (HuTIM-3 cells) against parental HEK293 cells (CTL cells), anti-mouse AlexaFluor488 secondary, MFI
Protocol: The binding of purified anti-TIM-3 mAbs to HEK293 cells transiently transfected with human TIM-3 (labeled as “HuTIM-3 cells”) or parental HEK293 cells (labeled as “CTL cells”) was tested by FACS at 3 different concentrations. An anti-mouse secondary Ab AlexaFluor488 was used for detection.
A human TIM-3-expressing plasmid was made and transiently transfected into HEK293T cells. After approximately 48 hours, cells were transferred to a 384-well V-bottom plate. Cells were washed with ice-cold FACS buffer (PBS supplemented with 1% BSA) and incubated with purified mAbs with gentle agitation at 4° C. for 45 minutes. The cells were washed with FACS buffer and incubated with an anti-mouse secondary Ab AlexaFluor488. The cells were washed and analyzed by FACS.

Row | Binder | IC50 (read off the curve) [1] | binding result [2]
1 | B1 | ~7 nM | 
2 | B2 |  | binds
3 | B3 | ~6 nM | 
4 | B4 |  | binds
